Measurements: US20250263490A1 (VIB VZW, published 2025)

T1: D87L
T1 construct: also called human CI-M6PR Dom1-3His6 D87L
T1 chain: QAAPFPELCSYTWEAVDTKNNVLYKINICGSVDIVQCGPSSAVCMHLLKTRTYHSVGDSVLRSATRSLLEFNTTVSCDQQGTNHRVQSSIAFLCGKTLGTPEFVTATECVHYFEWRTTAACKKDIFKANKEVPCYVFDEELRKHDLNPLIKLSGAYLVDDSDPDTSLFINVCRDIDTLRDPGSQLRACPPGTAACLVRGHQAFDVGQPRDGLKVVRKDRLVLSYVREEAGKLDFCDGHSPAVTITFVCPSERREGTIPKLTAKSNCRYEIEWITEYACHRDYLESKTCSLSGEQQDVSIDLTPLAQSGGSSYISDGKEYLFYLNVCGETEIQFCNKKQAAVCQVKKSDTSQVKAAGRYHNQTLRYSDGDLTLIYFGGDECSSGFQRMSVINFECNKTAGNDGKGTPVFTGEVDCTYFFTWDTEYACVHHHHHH

T2: K89D
T2 construct: also called human CI-M6PR Dom1-3His6 K89D
T2 chain: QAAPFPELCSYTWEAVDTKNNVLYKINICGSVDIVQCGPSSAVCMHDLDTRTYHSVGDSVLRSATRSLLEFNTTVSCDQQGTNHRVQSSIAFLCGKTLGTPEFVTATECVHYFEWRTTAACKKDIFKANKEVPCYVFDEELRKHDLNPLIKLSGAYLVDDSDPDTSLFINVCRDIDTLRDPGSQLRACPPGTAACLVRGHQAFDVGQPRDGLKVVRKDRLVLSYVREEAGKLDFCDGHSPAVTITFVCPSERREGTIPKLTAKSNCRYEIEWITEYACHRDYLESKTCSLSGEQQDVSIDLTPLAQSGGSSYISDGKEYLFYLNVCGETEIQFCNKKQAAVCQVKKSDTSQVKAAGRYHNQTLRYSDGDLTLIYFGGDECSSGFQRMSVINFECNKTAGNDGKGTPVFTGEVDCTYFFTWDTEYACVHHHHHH

T3: M85E
T3 construct: also called human CI-M6PR Dom1-3His6 M85E
T3 chain: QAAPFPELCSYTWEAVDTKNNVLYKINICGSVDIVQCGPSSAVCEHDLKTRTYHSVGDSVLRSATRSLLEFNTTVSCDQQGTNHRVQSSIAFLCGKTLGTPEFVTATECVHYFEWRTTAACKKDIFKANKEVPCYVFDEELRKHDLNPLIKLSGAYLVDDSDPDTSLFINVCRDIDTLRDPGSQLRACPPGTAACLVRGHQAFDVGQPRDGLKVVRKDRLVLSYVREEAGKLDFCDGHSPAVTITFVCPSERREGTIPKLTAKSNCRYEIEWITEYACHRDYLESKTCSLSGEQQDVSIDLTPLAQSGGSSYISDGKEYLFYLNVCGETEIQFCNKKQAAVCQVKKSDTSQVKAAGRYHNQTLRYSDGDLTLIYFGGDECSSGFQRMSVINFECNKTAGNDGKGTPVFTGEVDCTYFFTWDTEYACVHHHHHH

T4: F457E
T4 construct: also called human CI-M6PR Dom1-3His6 F457E
T4 chain: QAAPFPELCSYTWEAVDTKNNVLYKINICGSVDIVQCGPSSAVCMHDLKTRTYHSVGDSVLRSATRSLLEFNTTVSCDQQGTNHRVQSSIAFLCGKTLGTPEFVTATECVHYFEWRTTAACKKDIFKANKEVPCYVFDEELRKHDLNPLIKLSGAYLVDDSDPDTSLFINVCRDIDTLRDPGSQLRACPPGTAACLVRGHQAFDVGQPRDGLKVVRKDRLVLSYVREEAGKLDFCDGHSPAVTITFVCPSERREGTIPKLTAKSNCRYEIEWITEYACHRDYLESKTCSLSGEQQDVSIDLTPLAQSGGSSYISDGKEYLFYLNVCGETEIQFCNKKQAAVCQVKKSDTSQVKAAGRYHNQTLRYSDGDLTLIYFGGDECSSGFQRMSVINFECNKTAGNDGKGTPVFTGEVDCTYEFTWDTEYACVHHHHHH


Assays:
[1] = molecular target: T5, recombinant human domain 1-3His6 of the cation-independent mannose-6-phosphate receptor (human, UniProt P11717 41-467); test: ELISA on coated antigen (100 ng), anti-VHH-HRP, A450
T5 construct: Biotinylated (NHS-PEG4-biotin) for BLI; Glycosylated; also called hDom1-3His6; hCI-M6PRD1-D3
Experimental: (§1) To determine the effect of site-directed mutations, an ELISA was performed. To this end, 100 ng of each successfully purified mutant was coated per well on Nunc Maxisorp plates in 50 mM MES, 150 mM NaCl, pH 6.5 buffer overnight at 4° C. […] Coating-only controls were included for background correction. […] Reactions were stopped after five minutes using a 2N H₂SO₄ solution and plates were read at 450 nm, with a 655 nm background correction. Data were analyzed using the GraphPad Prism 9 software.

[2] = molecular target: T1, D87L; test: as above
Experimental: as §1

[3] = molecular target: T2, K89D; test: as above
Experimental: as §1

[4] = molecular target: T3, M85E; test: as above
Experimental: as §1

[5] = molecular target: T4, F457E; test: as above
Experimental: as §1

[6] = molecular target: T6, human cation-independent mannose-6-phosphate receptor, native, on cells (human, UniProt P11717 41-2491); test: flow cytometry, FLAG3-His6 VHH on HEK293T cells
T6 construct: whole, on cells; also called native CI-M6PR; cell-surface hCI-M6PR
Excerpt: Synthetic DNA fragments encoding VHHs were ordered (IDT, Leuven, Belgium) and subcloned into an E. coli expression vector under control of an IPTG-inducible lac promoter, in frame with N-terminal PelB signal peptide (which directs the recombinant proteins to the periplasmic compartment) and C-terminal FLAG3 and His6 tags. […] VHH proteins were purified from these clones by means of IMAC chromatography followed by desalting according to well established procedures¹⁰⁶. Cells used herein were recovered using cell dissociation non-enzymatic solution (Sigma Aldrich, cat. #C5914-100ML) and resuspended to a final concentration of 1,000,000 cells/mL in FACS buffer. Cells were incubated with different concentrations of purified FLAG3-tagged VHHs for 30 minutes on ice with shaking, followed by washing and incubation with mouse M2 anti-Flag mAb (Sigma Aldrich, cat. #F-1804) in FACS buffer for 30 min on ice with shaking, followed again by washing. […] Flow cytometry and analysis were done on an Attune NxT Flow Cytometer (Thermo Fisher Scientific).
Moreover, cross-reactivity to mouse CI-M6PR was analyzed, in view of the amino acid homology between mouse and human being overall about 80% identity, but for domain 1-3 of CI-M6PR just about 75% identity.

[7] = molecular target: T5, recombinant human domain 1-3His6 of the …; test: BLI

| EC50 (read off the curve) [1] [nM] | EC50 (read off the curve) [2] [nM] | EC50 (read off the curve) [3] [nM] | EC50 (read off the curve) [4] [nM] | EC50 (read off the curve) [5] [nM] | EC50 [6] [nM] | fold higher dissociation rate at pH 6.0 versus pH 7.4 [7] [fold] | Binder |
| --- | --- | --- | --- | --- | --- | --- | --- |
| ~0.4 | – | ~0.7 | – | ~0.4 | – | – | anti-CI-M6PR VHH 1H11 (VHH, made in E. coli WK6, His-tag purified) VHH: QVQLQESGGGLVQPGGSLRLSCAASGIIFSDNRMDWYRQAPGKQREWVATLASYGWKTYADSVKDRFTISRDNAKNTVNLYMNSLQPEDTAVYYCNSGQYWGQGTQVTVSS |
| ~0.3 | – | – | – | – | 20 | 5 | anti-CI-M6PR VHH7 (VHH, His6-tagged (Pichia pastoris)) VHH: QVQLQESGGGLVQPGGSLRLSCAASGIIFSDNRMDWYRQAPGKQREWVATLASYGWKTYADSVKGRFTISRDNTKNTVYLRMNSLKPEDTAVYYCKASSPVLNDIWGQGTQVTVSS |
| ~3 | ~4 | ~3 | ~3 | ~10 | 0.8 | – | anti-CI-M6PR VHH8 (VHH, His6-tagged (Pichia pastoris)) VHH: QVQLQESGGGLVQAGGSLRLSCEASGRTFNTYNWGWFRQAPGKEREFVAAIRWSSSKTSYADSVKGRFTISRDNAKNTIYLQMNSLKPEDTAVYYCAASIVDFTTNPSHFGSWGQGTQVTVSS |

Further lines, the binder ahead of its results:

| Binder | EC50 (read off the curve) [1] [nM] | EC50 (read off the curve) [2] [nM] | EC50 (read off the curve) [3] [nM] | EC50 (read off the curve) [4] [nM] | EC50 (read off the curve) [5] [nM] | EC50 [6] [nM] | fold higher dissociation rate at pH 6.0 versus pH 7.4 [7] [fold] |
| --- | --- | --- | --- | --- | --- | --- | --- |
| anti-CI-M6PR VHH5 (VHH, His6-tagged; made in Pichia pastoris, later also in E. coli WK6) VHH: QVQLQESGGGLVQAGGSLKLSCAAAGRTFSRLAMGWFRQAPGKEREFVAAISENGDSIHYSDSVKGRFAVSRDNAKNTVYLQMNSLKPEDTAIYYCAADRAAYYCSGSGCYPSRAPAAASYDYWGQGTQVTVSS | ~2 | ~2 | ~2 | ~2 | – | – | – |
| anti-CI-M6PR VHH1 (VHH, His6-tagged; made in Pichia pastoris, later also in E. coli WK6) VHH: QVQLQESGGGLVQPGGSLRLSCVASGFTFDRYWMNWLRQIPGKEIEWVSTINTGGTGTYYDDSVKGRFSISRDDAKNTLYLTMNSLKTEDTAVYYCARGATYYRGNSAIRGQGTQVTVSS | ~10 | – | – | – | – | – | – |
